Test results: patent publication US20030148462A1, “Dual inhibition of sister chromatid separation at metaphase” (President and fellows of Harvard College, priority 2001, published 2003)

What was measured:
separase = biological target: T1, separase (Homo sapiens, UniProt Q14674); assay: Re-inhibition of pre-activated separase by recombinant securin (cohesin hSCC1 cleavage); format: biochemical; details: separase 4 nM, one hour on ice
T1 construct: Full-length human separase was PCR-amplified from a human fetal thymus cDNA library; made in house
T1 sequence (Q14674 1-1486): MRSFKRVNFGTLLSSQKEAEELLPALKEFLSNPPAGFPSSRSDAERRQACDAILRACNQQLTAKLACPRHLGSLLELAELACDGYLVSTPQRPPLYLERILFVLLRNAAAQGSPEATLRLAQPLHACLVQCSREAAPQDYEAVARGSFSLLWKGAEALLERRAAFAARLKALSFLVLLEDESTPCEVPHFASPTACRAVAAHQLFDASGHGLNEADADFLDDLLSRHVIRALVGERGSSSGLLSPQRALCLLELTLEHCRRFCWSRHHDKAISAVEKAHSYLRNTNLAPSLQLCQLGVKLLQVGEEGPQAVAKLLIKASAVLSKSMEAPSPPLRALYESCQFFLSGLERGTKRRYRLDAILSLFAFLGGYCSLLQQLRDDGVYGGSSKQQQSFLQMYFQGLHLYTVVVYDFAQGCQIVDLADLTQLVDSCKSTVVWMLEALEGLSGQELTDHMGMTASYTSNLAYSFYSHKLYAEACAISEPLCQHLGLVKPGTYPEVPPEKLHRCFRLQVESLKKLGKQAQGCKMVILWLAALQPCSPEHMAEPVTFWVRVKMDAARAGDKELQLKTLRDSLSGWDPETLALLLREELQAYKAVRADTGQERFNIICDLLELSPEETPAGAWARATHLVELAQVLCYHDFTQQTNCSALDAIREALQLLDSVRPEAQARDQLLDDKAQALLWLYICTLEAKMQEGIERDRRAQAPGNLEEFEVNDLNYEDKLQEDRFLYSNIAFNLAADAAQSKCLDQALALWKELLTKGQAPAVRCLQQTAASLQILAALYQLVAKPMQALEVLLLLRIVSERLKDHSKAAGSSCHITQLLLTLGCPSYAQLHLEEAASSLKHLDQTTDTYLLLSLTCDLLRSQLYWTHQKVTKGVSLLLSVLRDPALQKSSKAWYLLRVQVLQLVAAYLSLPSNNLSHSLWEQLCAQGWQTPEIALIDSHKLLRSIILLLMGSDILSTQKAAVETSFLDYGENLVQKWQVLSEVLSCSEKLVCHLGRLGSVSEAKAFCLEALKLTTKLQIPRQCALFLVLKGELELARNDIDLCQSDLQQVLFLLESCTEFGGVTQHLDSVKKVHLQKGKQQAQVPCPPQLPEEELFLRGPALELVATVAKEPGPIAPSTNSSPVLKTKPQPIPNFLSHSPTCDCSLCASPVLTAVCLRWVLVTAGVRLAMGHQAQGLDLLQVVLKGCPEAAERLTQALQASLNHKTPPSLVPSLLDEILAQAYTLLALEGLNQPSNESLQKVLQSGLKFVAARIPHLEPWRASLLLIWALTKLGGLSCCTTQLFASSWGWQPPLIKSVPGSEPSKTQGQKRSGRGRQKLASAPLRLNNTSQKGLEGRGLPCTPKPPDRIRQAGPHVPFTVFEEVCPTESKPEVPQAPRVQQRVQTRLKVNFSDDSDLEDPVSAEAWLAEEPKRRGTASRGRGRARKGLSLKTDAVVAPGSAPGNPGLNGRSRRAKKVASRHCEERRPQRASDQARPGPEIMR
T1 sequence (Q14674 1536-2120): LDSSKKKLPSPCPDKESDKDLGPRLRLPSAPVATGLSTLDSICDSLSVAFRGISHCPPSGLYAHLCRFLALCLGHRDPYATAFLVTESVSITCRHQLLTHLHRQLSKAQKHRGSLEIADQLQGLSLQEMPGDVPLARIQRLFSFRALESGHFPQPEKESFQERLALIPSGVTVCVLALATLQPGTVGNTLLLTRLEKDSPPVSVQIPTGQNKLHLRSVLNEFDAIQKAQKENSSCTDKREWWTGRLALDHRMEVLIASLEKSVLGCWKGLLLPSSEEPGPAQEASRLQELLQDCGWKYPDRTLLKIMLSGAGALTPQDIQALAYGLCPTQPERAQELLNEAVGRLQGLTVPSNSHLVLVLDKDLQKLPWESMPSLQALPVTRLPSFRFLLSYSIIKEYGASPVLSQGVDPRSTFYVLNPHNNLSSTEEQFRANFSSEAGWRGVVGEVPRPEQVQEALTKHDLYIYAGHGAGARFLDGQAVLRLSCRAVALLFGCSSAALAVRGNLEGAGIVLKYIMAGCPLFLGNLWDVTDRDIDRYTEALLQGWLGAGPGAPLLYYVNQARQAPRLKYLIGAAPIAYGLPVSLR
Experimental: FIGS. 7A-7C depict the independent inhibition of separase activity by phosphorylation of separase and by binding of securin. (A) depicts a Western blot (upper panel) and cohesin^hSCC1 cleavage activity using isolated chromosomes as substrate (lower panel). Lane 2: Consecutive treatment of separase with high-Δ90 extract twice. (B) depicts separase that had been pre-activated in low-Δ90 extract that was eluted and incubated with recombinant securin (lanes 2 and 3) or reference buffer (lane 1) for one hour on ice. Subsequently, its cleavage activity towards in vitro translated ^35S-cohesin^hSCC1 was tested (upper panel). The separase concentration in each reaction was 4 nM, as estimated by Coomassie staining. To compare wild type separase with PM-2/4 mutant separase in its ability to bind securin the same experiment was repeated with PM-2/4 (lower panel). Roughly equal separase concentrations in both cases were assured by comparative immunoblotting (see FIG. 4B, lanes 15 and 17). (C) depicts a model for the dual inhibition of separase in metaphase and its activation at anaphase onset. PPase denotes an unknown protein phosphatase that is proposed to act on phosphorylated separase.
To determine whether securin can inhibit separase independent of the phosphorylation state of separase, and whether separase that has already been activated and has therefore cleaved itself be re-inhibited by either of the two inhibitory mechanisms, active separase was generated by treating a securin/separase complex with a low-Δ90 extract (L; FIG. 7) to degrade securin and dephosphorylate separase. […] Active separase on beads was then incubated with either recombinant securin or a high-Δ90 extract and assayed for its ability to cleave cohesin^hSCC1. […]

[1] = biological target: T2, tagged human separase, wild type, with N-terminal ZZ-TEV4-tag (human, UniProt Q14674 1-2120); assay: affinity-purified complex from transfected 293T cells
T2 construct: It was therefore self-cleaved into about 175 and 55 kDa fragments and dephosphorylated; also called wild type separase; WT

[2] = biological target: T3, tagged human separase, wild type, with three N-terminal HA tags (human, UniProt Q14674 1-2120); assay: affinity isolation of tagged separase from metaphase-arrested transfected 293T cells, Western blot
T3 construct: also called WT; wild type separase; not shown: three HA tags fused to the amino terminus

[3] = biological target: T4, catalytically inactive human separase mutant (catalytic cysteine replaced by serine), with three N-terminal … (human, UniProt Q14674 1-2120); assay: affinity isolation of tagged catalytically inactive separase (CS, lane 2) from transfected 293T cells, Western blot
T4 construct: also called CS; not shown: three HA tags fused to the amino terminus

Molar excess of securin sufficient to fully suppress cohesin hSCC1 cleavage (separase): ~2.5 fold molar excess | binding result [1]: binds | binding result [2]: binds | binding result [3]: binds
B1: human securin co-expressed with tagged separase in 293T cells (other, UniProt O95997 2-202, looked up)
chain: ATLIYVDKENGEPGTRVVAKDGLKLGSGPSIKALDGRSQVSTPRFGKTFDAPPALPKATRKALGTVNRATEKSVKTKGPLKQKQPSFSAKKMTEKTVKAKSSVPASDDAYPEIEKFFPFNPLDFESFDLPEEHQIAHLPLSGVPLMILDEERELEKLFQLGPPSPVKMPSPPWESNLLQSPSSILSTLDVELPPVCCDIDI
notes: also called associated securin
